The results in this text go back to patent US8492329B2, “Bioactive peptides and methods of using same” (Compugen Ltd., priority 2007, dated 2013).

“Also recorded” adds a separate entry of the source. No end group written: not given here.

What all share (format): cell-based
Assay [1] has as its target T1, GPR135 (RXFP3) (Homo sapiens, UniProt Q9NSD7).
T1 construct: host or cells: CHO-K1 recombinant cell line (Euroscreen)
T1 sequence (Q9NSD7 1-469): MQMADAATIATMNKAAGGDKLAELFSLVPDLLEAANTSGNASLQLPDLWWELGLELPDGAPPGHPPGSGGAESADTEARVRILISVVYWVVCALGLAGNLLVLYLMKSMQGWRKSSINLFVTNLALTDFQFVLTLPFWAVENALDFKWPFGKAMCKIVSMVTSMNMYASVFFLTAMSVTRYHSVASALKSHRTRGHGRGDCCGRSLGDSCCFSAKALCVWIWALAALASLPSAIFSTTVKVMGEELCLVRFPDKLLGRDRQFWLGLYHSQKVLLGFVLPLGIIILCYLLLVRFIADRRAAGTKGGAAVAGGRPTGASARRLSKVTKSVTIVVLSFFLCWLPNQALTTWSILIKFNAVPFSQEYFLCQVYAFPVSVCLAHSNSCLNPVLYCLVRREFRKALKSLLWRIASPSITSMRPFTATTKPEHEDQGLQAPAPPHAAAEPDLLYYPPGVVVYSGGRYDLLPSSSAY
In words: cAMP HTRF assay on Euroscreen RXFP3 recombinant cells. Conditions: increasing concentrations, 30 min; FIG. 5. On the procedure: The ability of P59C13V (SEQ ID NO: 6) and H3 Relaxin to activate CHO-K1 cells transfected by GPR135 (RXFP3), which is a non-LGR, Relaxin related receptor, was tested. The assay was performed by Euroscreen. For cAMP concentration analysis, Euroscreen cat. ES-656-A-cells (RXFP3, Euroscreen cat. ES-656-A) grown to mid-log phase in culture media without antibiotics were detached with PBS-EDTA, centrifuged and resuspended in assay buffer at a concentration of […]. The test was performed in 96 well plates. For agonist testing, 12 μl of cells (5×10^3 cells/well) were mixed with 12 μl of agonist Either H3-Relaxin or P59C13V (P59) (SEQ ID NO: 6) at increasing concentrations. The plates were then incubated for 30 min at room temperature. After addition of the lysis buffer, cAMP concentrations were estimated, according to the manufacturer specification, with the HTRF kit from Cis-Bio International (cat no 62AM2PEB).
.Relaxin 3 Fit (Eeuroscreen) was used as a positive control. RXFP3 (GPCR135) transfected cells were challenged with increasing concentrations of Relaxin 3 (H3 Relaxin—as a positive control—[…]) or P59C13V (P59) (SEQ ID NO: 6) (1 nM-3 uM).
Background: TR-FRET usually uses a lanthanide donor and a delayed reading to cut background.

Assay [2] has as its target T2, LGR4 (Homo sapiens, UniProt Q9BXB1).
T2 construct: expressed in transfected cells; host or cells: CHO-K1 (transient)
The assay can be described thus: cAMP accumulation in CHO-K1 cells transiently transfected with LGR4. Particulars: 1 uM, pre-treatment with Forskolin, FIG. 3C. As to the method:
[The procedure below names another target; the source says it served here with some conditions changed.] (§1) LGR7 (RXFP1) or LGR8 (RXFP2) were transiently transfected into CHO-K1 cells as follows: Cells (12 million) were plated into T75 flasks on the day preceding transfection. Cells were transfected with a GPCR DNA and Gα16 using a lipid technique according to the manufacturer's recommendation. Cells were transfected for 5 hours, then re-plated into 96-well dishes (60,000 cells per well) and grown overnight. Transfected cells were plated into 24 wells of a 96-well plate. Cells were pre-treated with 0.5 mM IBMX (stimulation buffer) for 10 min at 37° C., then stimulated with either a positive control (Relaxin 2) or a candidate peptide (for Gs functional examination), followed by stimulation or a preincubation with 10 μM forskolin (for Gi functional examination). Following a 20 minutes stimulation by incubation with 1 μM of either positive control or the tested peptides, either with or without forskolin, intracellular cAMP was assayed using the Hit Hunter cAMP kit (DiscoveRx Corporation) according to the manufacturer's recommended protocol. Data was converted to nmol of cAMP by running a standard cAMP curve.

In assay [3] the target is T3, LGR5 (Homo sapiens, UniProt O75473).
T3 construct: expressed in transfected cells; host or cells: CHO-K1 (transient)
T3 sequence (O75473 22-907): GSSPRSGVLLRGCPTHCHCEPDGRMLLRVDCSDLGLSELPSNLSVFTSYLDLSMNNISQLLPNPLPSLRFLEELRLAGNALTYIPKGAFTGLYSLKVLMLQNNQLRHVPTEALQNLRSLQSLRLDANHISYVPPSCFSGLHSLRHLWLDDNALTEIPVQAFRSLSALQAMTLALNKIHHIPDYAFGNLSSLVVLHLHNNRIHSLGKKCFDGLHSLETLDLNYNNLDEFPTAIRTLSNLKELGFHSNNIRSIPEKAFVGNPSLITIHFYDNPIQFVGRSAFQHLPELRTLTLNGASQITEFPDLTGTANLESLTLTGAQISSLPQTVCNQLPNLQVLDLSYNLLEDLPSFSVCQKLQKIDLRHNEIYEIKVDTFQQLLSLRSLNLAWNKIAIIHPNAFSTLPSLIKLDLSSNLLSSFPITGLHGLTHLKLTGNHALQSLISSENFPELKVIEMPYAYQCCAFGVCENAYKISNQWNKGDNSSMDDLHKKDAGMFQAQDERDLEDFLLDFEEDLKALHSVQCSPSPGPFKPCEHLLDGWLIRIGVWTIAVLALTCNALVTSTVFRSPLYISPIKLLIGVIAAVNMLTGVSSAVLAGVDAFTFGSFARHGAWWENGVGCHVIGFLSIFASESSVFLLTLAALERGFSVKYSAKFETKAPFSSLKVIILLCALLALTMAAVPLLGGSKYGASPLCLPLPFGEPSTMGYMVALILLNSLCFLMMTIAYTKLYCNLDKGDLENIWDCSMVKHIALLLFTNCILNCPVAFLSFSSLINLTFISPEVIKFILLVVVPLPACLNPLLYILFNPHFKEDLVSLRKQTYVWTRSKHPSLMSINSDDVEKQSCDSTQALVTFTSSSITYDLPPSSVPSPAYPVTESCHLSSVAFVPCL
In words: cAMP accumulation in CHO-K1 cells transiently transfected with LGR5. Conditions: 1 uM, pre-treatment with Forskolin, FIG. 3B. On the procedure: [The procedure below names another target; the source says it served here with some conditions changed.] as §1
(cAMP levels reflect the balance of adenylyl cyclase and phosphodiesterase activity.)

Turning to “GQKGQVGPPGAAVRRAYAAFSV [Peptide P59C13V]”, the “cAMP activation (Gs) of RXFP3” value in assay [1] is recorded as “didn't show any cAMP activation (Gs)”. Further, the “Gi effect (decrease in cAMP accumulation)” value is reported as “slight yet statistically significant Gi effect; also recorded: slight Gi activation” in assay [2] and “significant Gi effect; also recorded: slight Gi activation” in assay [3].

For the substance “GQKGQVGPPGAAVRRAYAAFSVGRRAYAAFSV-OH [Peptide P74C13V]”, the “Gi effect (decrease in cAMP accumulation)” value in assay [2] is “slight yet statistically significant Gi effect; also recorded: slight Gi activation”; in assay [3] it was “significant Gi effect; also recorded: slight Gi activation”.
